The experiment addresses T1, MLO-Y4 cell surface proteins (Mus musculus, UniProt O88492).
T1 construct: endogenous in cells; host or cells: MLO-Y4
T1 sequence (O88492 1-1403): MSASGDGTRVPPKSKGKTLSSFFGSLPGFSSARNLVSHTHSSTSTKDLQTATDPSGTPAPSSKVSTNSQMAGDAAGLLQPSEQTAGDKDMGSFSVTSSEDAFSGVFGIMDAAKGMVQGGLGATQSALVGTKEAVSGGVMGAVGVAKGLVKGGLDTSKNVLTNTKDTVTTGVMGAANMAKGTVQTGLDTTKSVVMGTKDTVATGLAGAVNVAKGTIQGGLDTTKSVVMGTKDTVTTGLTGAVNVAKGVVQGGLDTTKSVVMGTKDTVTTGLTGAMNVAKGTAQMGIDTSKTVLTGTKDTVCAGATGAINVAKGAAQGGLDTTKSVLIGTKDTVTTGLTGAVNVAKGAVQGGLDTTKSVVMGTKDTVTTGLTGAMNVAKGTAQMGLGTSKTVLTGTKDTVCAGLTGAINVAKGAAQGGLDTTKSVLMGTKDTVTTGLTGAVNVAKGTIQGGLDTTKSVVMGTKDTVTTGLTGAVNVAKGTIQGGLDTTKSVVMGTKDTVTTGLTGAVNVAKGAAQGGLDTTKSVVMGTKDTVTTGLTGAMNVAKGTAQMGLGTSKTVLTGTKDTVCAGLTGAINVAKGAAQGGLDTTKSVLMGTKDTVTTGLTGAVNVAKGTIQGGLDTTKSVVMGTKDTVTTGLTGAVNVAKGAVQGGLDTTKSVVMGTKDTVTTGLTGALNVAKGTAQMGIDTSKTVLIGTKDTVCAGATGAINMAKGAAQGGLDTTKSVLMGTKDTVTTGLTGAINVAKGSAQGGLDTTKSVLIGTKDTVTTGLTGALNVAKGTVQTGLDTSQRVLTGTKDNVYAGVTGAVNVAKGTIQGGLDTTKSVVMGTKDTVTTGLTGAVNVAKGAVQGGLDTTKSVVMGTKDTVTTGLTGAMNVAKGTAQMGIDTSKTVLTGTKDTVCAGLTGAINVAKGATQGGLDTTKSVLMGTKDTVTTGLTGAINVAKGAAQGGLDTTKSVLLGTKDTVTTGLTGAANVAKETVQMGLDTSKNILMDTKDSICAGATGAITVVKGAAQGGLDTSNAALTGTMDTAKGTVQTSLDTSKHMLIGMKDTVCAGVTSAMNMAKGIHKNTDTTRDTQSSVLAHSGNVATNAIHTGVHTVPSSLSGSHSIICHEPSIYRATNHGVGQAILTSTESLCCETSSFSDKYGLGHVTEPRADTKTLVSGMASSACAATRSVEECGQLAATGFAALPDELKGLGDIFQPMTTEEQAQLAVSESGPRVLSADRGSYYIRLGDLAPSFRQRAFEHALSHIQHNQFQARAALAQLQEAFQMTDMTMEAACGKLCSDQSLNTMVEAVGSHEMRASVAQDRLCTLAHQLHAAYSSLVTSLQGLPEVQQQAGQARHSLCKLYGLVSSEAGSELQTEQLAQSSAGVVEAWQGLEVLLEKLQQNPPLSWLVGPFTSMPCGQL
The experiment in a line: Crosslinking/co-immunoprecipitation/mass spectrometry (TMT quantitative proteomics) to identify irisin receptors. It is filed as binding. The conditions noted are these: co-precipitated protein Plin4 (PLIN4_MOUSE). A digest of the protocol: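 Mouse MLO-Y4 cells were switched to serum-free FreeStyle medium for 4 h, chilled, then exposed to 10 nM His-tagged irisin (or adipsin as control) for 20 min. Cells were crosslinked with 1.5 mM DTSSP (30 min, ice), and bound proteins were pulled down on Ni-NTA and eluted with 250 mM imidazole. Eluates were separated by SDS-PAGE, trypsin-digested in gel, TMT 6-plex labelled and quantified by MS3-based LC-MS/MS on an Orbitrap Fusion Lumos.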

B1: irisin: secreted cleaved form of FNDC5; recombinant human/mouse irisin with C-terminal his tag produced in HEK293 cells (protein)
chain: DSPSAPVNVTVRHLKANSAVVSWDVLEDEVVIGFAISQQKKDVRMLRFIQEVNTTTRSCALWDLEEDTEYIVHVQAISIQGQSPASEPVLFKTPREAEKMASKNKDEVTMKE
modifications: left off: small tags and cut ends
notes: secreted cleaved form of FNDC5; recombinant human/mouse irisin with C-terminal his tag produced in HEK293 cells
Regarding B1, the TMT signal-to-noise ratio is on record as 18.9196 and the “irisin/adipsin TMT signal-to-noise ratio” value was 0.169.

These data come from patent publication US20210063414A1, “METHODS FOR PREVENTING AND/OR TREATING BONE LOSS CONDITIONS BY MODULATING IRISIN” (Dana-Farber Cancer Institute, Inc., priority 2018, published 2021).
